Source: PMC2784022

B1: VP16AD-RIP140 (natural protein)
chain: MTHGEELGSDVHQDSIVLTYLEGLLMHQAAGGSGTAINKKSAGHKEEDQNFNLSGSAFPSCQSNGPTVSTQTYQGSGMLHLKKARLLQSSEDWNAAKRKRLSDSIVNLNVKKEALLAGMVDSVPKGKQDSTLLASLLQSFSSRLQTVALSQQIRQSLKEQGYALSHESLKVEKDLRCYGVASSHLKTLLKKSKTKDQKSGPTLPDVTPNLIRDSFVESSHPAVGQSGTKVMSEPLSCAARLQAVASMVEKRASPAASPKPSVACSQLALLLSSEAHLQQYSREHALKTQNAHQVASERLAAMARLQENGQKDVGSSQLSKGVSGHLNGQARALPASKLVANKNNAATFQSPMGVVPSSPKNTSYKNSLERNNLKQAANNSLLLHLLKSQTIPTPMNGHSQNERASSFESSTPTTIDEYSDNNPSFTDDSSGDESSYSNCVPIDLSCKHRIEKPEAERPVSLENLTQSLLNTWDPKIPGVDIKEDQDTSTNSKLNSHQKVTLLQLLLGHKSEETVERNASPQDIHSDGTKFSPQNYTRTSVIESPSTNRTTPVSTPPLYTASQAESPINLSQHSLVIKWNSPPYACSTPASKLTNTAPSHLMDLTKGKESQAEKPAPSEGAQNSATFSASKLLQNLAQCGLQSSGPGEEQRPCKQLLSGNPDKPLGLIDRLNSPLLSNKTNAAEESKAFSSQPAGPEPGLPGCEIENLLERRTVLQLLLGNSSKGKNEKKEKTPARDEAPQEHSERAANEQILMVKIKSEPCDDFQTHNTNLPLNHDAKSAPFLGVTPAIHRSTAALPVSEDFKSEPASPQDFSFSKNGLLSRLLRQNQESYPADEQDKSHRNSELPTLESKNICMVPKKRKLYTEPLENPFKKMKNTAVDTANHHSGPEVLYGSLLHQEELKFSRNELDYKYPAGHSSASDGDHRSWARESKSFNVLKQLLLSENCVRDLSPHRSDSVPDTKKKGHKNNAPGSKPEFGISSLNGLMYSSPQPGSCVTDHRTFSYPGMVKTPLSPPFPEHLGCVGSRPEPGLLNGCSVPGEKGPIKWVIADMDKNEYEKDSPRLTKTNPILYYMLQKGGGNSVTTQETQDKDIWREPASAESLSQVTVKEELLPAAETKASFFNLRSPYNSHMGNNASRPHSTNGEVYGLLGNALTIKKESE

Target: Gal4BD-TR4LBD (mouse) (UniProt P49117)
UniProt P49117, sequence (P49117 178-477): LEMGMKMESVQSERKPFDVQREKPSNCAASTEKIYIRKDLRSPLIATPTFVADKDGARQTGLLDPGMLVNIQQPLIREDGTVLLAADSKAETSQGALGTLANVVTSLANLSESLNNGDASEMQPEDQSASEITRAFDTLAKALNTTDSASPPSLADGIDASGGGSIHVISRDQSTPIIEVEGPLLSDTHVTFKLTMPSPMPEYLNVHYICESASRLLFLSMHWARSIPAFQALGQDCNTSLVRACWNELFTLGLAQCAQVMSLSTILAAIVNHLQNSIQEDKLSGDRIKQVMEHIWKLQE
Assay: two-hybrid

Row | Molecule | fold enhancement of the two-hybrid reporter with γ-linoleic acid [fold]
1 | VP16AD-PCAF (from UniProt Q92831 1-832) (natural protein) | 12
2 | B1 | 23
